Measured values reported in US12497593B2, “Generation of hematopoietic progenitor cells from human pluripotent stem cells” (Wisconsin Alumni Research Foundation, priority 2018, dated 2025).

Test system: human pluripotent stem cells provided at high cell density
Assay: Hematopoietic cell formation in high cell density differentiation culture
Type: cell-based
Settings: with 50 ng/ml BMP4
Experimental: FIGS. 1A-1F concern hematopoietic cell differentiation in accord with the invention. […] Cells in high cell density methods of the experiments depicted in this figure were plated at 1.1×10^5 cells/cm^2. Cells in low cell density methods of the experiments depicted in this figure were plated at 1.8×10^4 cells/cm^2. The photographs of FIG. 1B show cell morphology of cells of each culture at day 10. […] The hematopoietic cells could be cryopreserved at day 10 (90% FBS+10% DMSO) and hemangioblasts can be cryopreserved at day 6.
FIG. 2A-2D show Notch and YAP signaling in the low and high density cell cultures. FIGS. 2A-2B show immunostaining of YAP and NICD1 (Notch intra-cellular domain). […] Cells cultured at high density were treated with or without 10 μM DAPT (a Notch inhibitor) from day 2-10.
FIGS. 3A-3E show BMP4 signaling in the low and high density cell cultures. […] Cells were cultured at high density with or without 50 ng/ml BMP4. […] Cells were cultured at low density with or without LDN (a BMP signaling inhibitor).
Cell-cell contact regulates arterial endothelial cells and hemangioblast cell fate determination—Endothelial-to-hematopoietic stem cell transition occurs in aorta-gonad-mesonephros region. We therefore investigated whether human pluripotent stem cell-derived arterial endothelial cells can be reprogrammed into hematopoietic stem cells. […]

B1: BMP4: Bone Morphogenetic Protein 4, added at 50 ng/ml to high density culture (protein, UniProt P12644 293-408, looked up)
Bone morphogenetic protein 4: SPKHHSQRARKKNKNCRRHSLYVDFSDVGWNDWIVAPPGYQAFYCHGDCPFPLADHLNSTNHAIVQTLVNSVNSSIPKACCVPTELSAISMLYLDEYDKVVLKNYQEMVVEGCGCR
  hematopoiesis (total hematopoietic cell number, cell morphology at day 10): promoted hematopoiesis
